# From the supplement of paper PMC7877785
# ± gives the uncertainty stated by the source.
# Assay: self-splicing fitness, log relative to wild type (ln ratio); higher = more splicing; Tetrahymena group I intron in knt gene, E. coli kanamycin selection, DiMSum; sequences stand for … in CUCUCU…GGAGGGAAAAGUUAUCAGGCAUGCACCUGGUAGCUAGUCUUUAAACCAAUAGAUUGCAUCGGUUUAAAAGGCAAGACCGUCAAAUUGCGGGAAAGGGGUCAACAGCCGUUCAGUACCAAGUCUCAGGGGAAACUUUGAGAUGGCCUUGCAAAGGGUAUGGUAAUAAGCUGACGGACAUGGUCCUAACCACGCAGCCAAGUCCUAAGUCAACAGAUCUUCUGUUGAUAUGGAUGCAGUUCACAGACUAAAUGUCGGUCGGGGAAGAUGUAUUCUUCUCAUAAGAUAUAGUCGGACCUCUCCUUAAUGGGAGCUAGCGGAUGAAGUGAUGCAACACUGGAGCCGCUGGGAACUAAUUUGUAUGCGAAAGUAUAUUGAUUAGUUUUGGAGUACUCGUGGUCG
# In short: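 DiMSum derived fitness as the error-weighted combination of fold changes across replicates, kanamycin versus no kanamycin, normalised to wild type. E. coli BL21(DE3) held the library, which randomised all eight P1ex-region intron nucleotides within the knt kanamycin-resistance gene on pET-22b(+). Six replicate transformations grew overnight at 37°C or 30°C on LB agar with or without 25 μg/mL kanamycin, also containing 100 μg/mL carbenicillin, 50 μM IPTG and 0.2% rhamnose, and pooled colonies were amplicon-sequenced on an Illumina HiSeq 2500.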
Sequence,self-splicing fitness (ln) (37 °C),self-splicing fitness (ln) (30 °C)
AAUGAGCAAUAUUACGGGUA,-0.858 ± 0.23,
AAUGAGCAAUAUUACGGUCU,-0.956 ± 0.13,-1.96 ± 0.13
AAUGAGCAAUAUUACGGUGU,-2.55 ± 0.19,-4.53 ± 0.29
AAUGAGCAAUAUUACGGUUA,-1.86 ± 0.15,-3.02 ± 0.22
AAUGAGCAAUAUUACGUAAA,-1.1 ± 0.18,-3.26 ± 0.18
AAUGAGCAAUAUUACGUAUG,-2.92 ± 0.28,
AAUGAGCAAUAUUACGUGUG,-1.65 ± 0.17,-4.35 ± 0.3
AAUGAGCAAUAUUACGUUGA,-2.25 ± 0.17,-3.71 ± 0.24
AAUUAGCAAUAUUACGAAGA,-0.985 ± 0.16,-1.25 ± 0.17
AAUUAGCAAUAUUACGACUA,0.169 ± 0.099,0.0301 ± 0.1
AAUUAGCAAUAUUACGCAGA,-1.24 ± 0.31,-1.71 ± 0.33
AAUUAGCAAUAUUACGCAGG,-1.89 ± 0.23,-2.44 ± 0.23
AAUUAGCAAUAUUACGCAUC,-1.15 ± 0.2,-2.79 ± 0.24
AAUUAGCAAUAUUACGCCGG,-0.87 ± 0.4,-2.62 ± 0.34
AAUUAGCAAUAUUACGCUGA,-2.42 ± 0.27,-2.75 ± 0.4
AAUUAGCAAUAUUACGGACC,-1.07 ± 0.48,
AAUUAGCAAUAUUACGGAGC,-2.64 ± 0.33,-2.52 ± 0.3
AAUUAGCAAUAUUACGGAUA,-0.926 ± 0.11,-1.75 ± 0.11
AAUUAGCAAUAUUACGGGGG,-2.9 ± 0.27,-2.91 ± 0.15

Sequence,self-splicing fitness (ln) (37 °C),self-splicing fitness (ln) (30 °C)
AAUUAGCAAUAUUACGUAAG,-0.936 ± 0.13,-1.82 ± 0.12
AAUUAGCAAUAUUACGUACA,-0.498 ± 0.096,-0.782 ± 0.086
AAUUAGCAAUAUUACGUAGC,-1.08 ± 0.32,-3.24 ± 0.25
AAUUAGCAAUAUUACGUCAU,-1.7 ± 0.17,-2.24 ± 0.18
AAUUAGCAAUAUUACGUCCC,-0.0336 ± 0.49,-0.346 ± 0.41
AAUUAGCAAUAUUACGUGCG,-0.209 ± 0.14,-0.879 ± 0.12
AAUUAGCAAUAUUACGUUCG,-0.728 ± 0.18,-1.16 ± 0.12
ACAAAGCAAUAUUACGACCG,0.578 ± 0.13,-0.343 ± 0.1
ACAAAGCAAUAUUACGAUAU,-1.15 ± 0.1,-2.1 ± 0.088
ACAAAGCAAUAUUACGCAUC,-1.74 ± 0.2,-3.49 ± 0.21
ACAAAGCAAUAUUACGCCCG,0.177 ± 0.16,-0.191 ± 0.13
ACAAAGCAAUAUUACGCCUG,-0.0625 ± 0.085,-0.933 ± 0.07
ACAAAGCAAUAUUACGGGGC,-3.28 ± 0.27,-3.69 ± 0.23
ACAAAGCAAUAUUACGGUAA,-1.49 ± 0.13,-2.45 ± 0.17
ACAAAGCAAUAUUACGUACG,-0.615 ± 0.087,-1.84 ± 0.068
ACAAAGCAAUAUUACGUAUC,-1.69 ± 0.099,-2.27 ± 0.072
ACAAAGCAAUAUUACGUCAG,-1.47 ± 0.12,-2.7 ± 0.14
ACAAAGCAAUAUUACGUCGA,-1.02 ± 0.094,-1.98 ± 0.092
ACAAAGCAAUAUUACGUGGA,-2.44 ± 0.11,-3.55 ± 0.15
